{"source": "patent US9212226B2", "about": "“Amino acid sequences directed against CXCR4 and other GPCRs and compounds comprising the same” (Ablynx N.V., priority 2008, dated 2015)", "molecules": {"B1": {"name": "238F3: Nanobody (VHH) raised against human CXCR4, SEQ ID NO: 247 (protein)", "VHH": "EVQLVESGGGLAQAGGSLRLSCAASGRTYAMGWFRQAPGKEREFVTTSRLITDNIIYADSVKGRFTLTRDNGKNTVYLQMDSLKPDDTAVYFCAARQNYSRSVFGAKDYDYWGQGTQVTVSS", "modifications": "Nanobody, Nanobody constructs or fragments thereof"}, "B2": {"name": "[^125I]-238D4: 125I-labeled Nanobody 238D4 used as radioligand (protein)", "VHH": "EVQLMESGGGLVQAGGSLRLSCAASGRTFNNYAMGWFRRAPGKEREFVAAITRSGVRSGVSAIYGDSVKDRFTISRDNAKNTLYLQMNSLKPEDTAVYTCAASAIGSGALRRFEYDYSGQGTQVTVSS"}, "B3": {"name": "[^125I]-238D2: 125I-labeled Nanobody 238D2 used as radioligand (protein)", "VHH": "EVQLVESGGGLVQTGGSLRLSCAASGFTFSSYAMSWVRQAPGKGLEWVSGIKSSGDSTRYAGSVKGRFTISRDNAKNMLYLQMYSLKPEDTAVYYCAKSRVSRTGLYTYDNRGQGTQVTVSS"}}, "key": {"CXCR4": {"target": "CXCR4 (Homo sapiens, UniProt P61073)", "sequence (P61073 with tags, fused parts or gaps isoform P61073-2 limits assumed)": "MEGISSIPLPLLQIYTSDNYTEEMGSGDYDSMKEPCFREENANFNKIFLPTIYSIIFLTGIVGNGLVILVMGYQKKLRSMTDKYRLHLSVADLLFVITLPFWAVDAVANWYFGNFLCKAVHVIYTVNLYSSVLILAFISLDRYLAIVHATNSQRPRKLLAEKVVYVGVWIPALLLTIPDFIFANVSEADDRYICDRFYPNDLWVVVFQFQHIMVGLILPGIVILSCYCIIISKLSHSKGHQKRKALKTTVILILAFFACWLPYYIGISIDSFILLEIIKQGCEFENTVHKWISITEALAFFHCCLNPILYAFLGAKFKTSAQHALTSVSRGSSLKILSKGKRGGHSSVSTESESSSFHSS", "test": "Phage ELISA binding assay on CHO-CXCR4 versus CHO membranes", "parameters": "expressed in transfected cells; host or cells: CHO cells (membrane preparation)", "settings": "monoclonal phages, CHO-CXCR4 vs CHO membranes", "description": "FIG. 2. Results from Phage ELISA (as described in example 1.5).\nIn order to determine binding specificity of the Nanobodies, 15 ul of the produced phage were tested in an Phage ELISA binding assay.\nIn short, 2 ug in 100 ul PBS of membrane expressing either CXCR4 (CHO-CXCR4) or a non relevant GPCR(CHO) were coated directly on Maxisorp microtiter plates (Nunc) overnight at 4 C. Free binding sites were blocked using 4% Marvel in PBS for 1 h. Next, 15 ul of monoclonal phages was added in 100 ul 1% Marvel PBS for 2 hours. […] Binding specificity (binding to CHO-CXCR4) was determined based on OD values compared to controls (binding to CHO)."}, "CXCR3": {"target": "T1, CXCR3 (Homo sapiens, UniProt P49682)", "T1 sequence (P49682 1-368)": "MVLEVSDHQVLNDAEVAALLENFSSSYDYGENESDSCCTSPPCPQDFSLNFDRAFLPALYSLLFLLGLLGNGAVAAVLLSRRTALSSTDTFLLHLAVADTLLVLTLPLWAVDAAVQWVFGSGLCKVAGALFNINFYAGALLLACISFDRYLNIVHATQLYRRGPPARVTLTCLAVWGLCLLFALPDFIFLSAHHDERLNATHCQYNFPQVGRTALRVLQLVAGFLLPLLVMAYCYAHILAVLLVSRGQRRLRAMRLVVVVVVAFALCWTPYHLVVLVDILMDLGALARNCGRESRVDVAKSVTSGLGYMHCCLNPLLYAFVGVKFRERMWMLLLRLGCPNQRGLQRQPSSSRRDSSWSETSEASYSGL", "test": "Binding of [125I]-238D2 / [125I]-238D4 to membranes from HEK293T cells expressing CXCR4 or CXCR3", "settings": "radiolabelled Nanobody"}}}
{"molecule": "B1", "values": [{"measurement": "specificity toward CXCR4 expressing membrane compared to non-expressing membrane", "setting": "CXCR4", "value": "high specificity"}]}
{"molecule": "B2", "values": [{"measurement": "binding to CXCR4 membranes compared to CXCR3 membranes", "setting": "CXCR3", "value": "selectively bind"}]}
{"molecule": "B3", "values": [{"measurement": "binding to CXCR4 membranes compared to CXCR3 membranes", "setting": "CXCR3", "value": "selectively bind"}]}
